# Substitutions are numbered along the chain they refer to. Names may count otherwise. Where two headings read alike, the source gives them in different places.
# T1: human CD73 on cells (human, UniProt P21589 27-549)
# T1 construct: whole, on cells; also called full-length human CD73 on CHO cells; human CD73 on Jurkat cells
# T1 sequence (looked up): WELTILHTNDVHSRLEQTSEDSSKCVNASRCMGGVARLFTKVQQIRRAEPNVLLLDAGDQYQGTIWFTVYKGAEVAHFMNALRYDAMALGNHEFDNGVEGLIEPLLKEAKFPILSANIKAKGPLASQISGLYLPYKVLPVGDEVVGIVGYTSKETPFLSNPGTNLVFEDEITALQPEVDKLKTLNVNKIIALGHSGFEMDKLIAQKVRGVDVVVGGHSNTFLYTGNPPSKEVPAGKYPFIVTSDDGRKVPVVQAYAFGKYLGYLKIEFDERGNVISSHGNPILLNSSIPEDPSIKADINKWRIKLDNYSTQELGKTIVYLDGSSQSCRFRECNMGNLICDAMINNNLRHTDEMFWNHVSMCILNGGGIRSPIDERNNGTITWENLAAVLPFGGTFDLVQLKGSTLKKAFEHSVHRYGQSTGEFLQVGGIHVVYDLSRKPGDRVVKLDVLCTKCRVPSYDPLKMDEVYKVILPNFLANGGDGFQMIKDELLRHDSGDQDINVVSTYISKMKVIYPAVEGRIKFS
# T2: recombinant human CD73 protein fused with a 6×His-tag (R&D Systems, 5795EN) (human, UniProt P21589 27-547)
# T2 sequence: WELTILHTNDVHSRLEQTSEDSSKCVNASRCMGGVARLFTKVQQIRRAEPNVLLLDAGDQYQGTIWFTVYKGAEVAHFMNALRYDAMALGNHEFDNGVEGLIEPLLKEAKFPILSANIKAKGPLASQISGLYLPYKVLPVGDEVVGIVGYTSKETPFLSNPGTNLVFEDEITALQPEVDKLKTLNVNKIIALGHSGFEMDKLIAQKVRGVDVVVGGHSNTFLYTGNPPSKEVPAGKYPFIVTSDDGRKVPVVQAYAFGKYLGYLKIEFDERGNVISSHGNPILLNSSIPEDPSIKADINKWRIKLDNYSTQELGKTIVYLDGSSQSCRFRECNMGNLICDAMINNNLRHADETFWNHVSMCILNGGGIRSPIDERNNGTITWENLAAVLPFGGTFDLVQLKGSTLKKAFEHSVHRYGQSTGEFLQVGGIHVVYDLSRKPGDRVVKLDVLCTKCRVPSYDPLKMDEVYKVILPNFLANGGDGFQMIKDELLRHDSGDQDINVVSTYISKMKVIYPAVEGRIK
# T3: cynomolgus CD73 on cells (cynomolgus, UniProt A0A2K5V5U7 27-549)
# T3 construct: whole, on cells; also called full-length cynomolgus CD73 on CHO cells; CD73 on cynomolgus monkey CD8+ T cells
# T3 sequence: T1 sequence (looked up) with M199T, T350A, V466I
# T4: recombinant cynomolgus CD73 protein fused with a 6×His-tag (Sino Biological, 90192-C08H) (cynomolgus, UniProt A0A2K5V5U7 27-547)
# T4 sequence: T2 sequence with M199T, T353M, V466I
# T5: mouse CD73 on cells (mouse, UniProt Q61503 29-551)
# T5 construct: whole, on cells; also called full-length mouse CD73 on CHO cells (CHO-muCD73); CD73 on mouse CD8+ T cells
# T5 sequence (looked up): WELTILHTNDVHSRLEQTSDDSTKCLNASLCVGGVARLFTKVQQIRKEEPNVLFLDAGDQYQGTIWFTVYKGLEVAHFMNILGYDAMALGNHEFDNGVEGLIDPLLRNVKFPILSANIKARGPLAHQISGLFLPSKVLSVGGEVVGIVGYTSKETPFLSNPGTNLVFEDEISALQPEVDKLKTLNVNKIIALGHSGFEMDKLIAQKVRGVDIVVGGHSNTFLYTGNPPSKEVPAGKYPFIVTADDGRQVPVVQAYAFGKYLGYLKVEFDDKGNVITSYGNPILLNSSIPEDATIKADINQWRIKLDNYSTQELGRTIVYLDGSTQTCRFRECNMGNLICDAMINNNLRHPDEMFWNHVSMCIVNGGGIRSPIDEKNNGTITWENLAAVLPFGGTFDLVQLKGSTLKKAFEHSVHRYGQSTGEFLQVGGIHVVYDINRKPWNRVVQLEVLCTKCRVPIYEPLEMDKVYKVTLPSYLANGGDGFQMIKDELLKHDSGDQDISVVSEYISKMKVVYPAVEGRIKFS
# T6: recombinant mouse CD73 protein fused with a 6×His-tag (R&D Systems, 4488EN) (mouse, UniProt Q61503 29-549, limits assumed)
# T6 sequence (looked up): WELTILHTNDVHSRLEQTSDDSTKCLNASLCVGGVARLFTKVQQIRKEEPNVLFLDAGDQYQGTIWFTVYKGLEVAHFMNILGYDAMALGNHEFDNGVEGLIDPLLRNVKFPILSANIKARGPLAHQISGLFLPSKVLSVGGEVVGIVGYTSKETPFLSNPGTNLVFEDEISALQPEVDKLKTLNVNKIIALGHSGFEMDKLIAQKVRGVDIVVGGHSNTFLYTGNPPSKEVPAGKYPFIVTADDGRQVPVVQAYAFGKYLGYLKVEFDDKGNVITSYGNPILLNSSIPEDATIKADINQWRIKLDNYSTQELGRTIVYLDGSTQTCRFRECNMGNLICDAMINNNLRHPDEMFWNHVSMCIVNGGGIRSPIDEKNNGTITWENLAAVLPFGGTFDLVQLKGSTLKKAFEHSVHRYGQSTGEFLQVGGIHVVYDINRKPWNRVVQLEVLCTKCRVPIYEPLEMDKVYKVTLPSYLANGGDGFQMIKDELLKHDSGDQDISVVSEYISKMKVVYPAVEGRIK
# B1: BA015 (antibody, human IgG1, kappa, N297A)
# heavy: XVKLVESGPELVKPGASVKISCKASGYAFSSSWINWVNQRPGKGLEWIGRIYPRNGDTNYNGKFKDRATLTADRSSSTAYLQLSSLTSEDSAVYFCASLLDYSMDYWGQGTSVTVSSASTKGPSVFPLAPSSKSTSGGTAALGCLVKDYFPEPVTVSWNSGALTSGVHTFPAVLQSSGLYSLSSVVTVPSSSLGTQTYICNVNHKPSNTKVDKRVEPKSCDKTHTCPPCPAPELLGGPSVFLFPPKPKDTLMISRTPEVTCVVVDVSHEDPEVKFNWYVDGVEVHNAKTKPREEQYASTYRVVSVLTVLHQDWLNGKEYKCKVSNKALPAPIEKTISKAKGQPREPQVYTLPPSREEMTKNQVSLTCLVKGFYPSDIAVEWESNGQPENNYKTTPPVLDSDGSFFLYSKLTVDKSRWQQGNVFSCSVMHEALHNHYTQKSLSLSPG
# light: DIQMTQSTSSLSASLGDRVTISCRASQDISNYLNWYQQKPDGTVKLLIYYTSRLHSGVPSRFSGSGSGTDYSLTISNLEQEDIATYFCQQGNTLPLTFGAGTKLELKRTVAAPSVFIFPPSDEQLKSGTASVVCLLNNFYPREAKVQWKVDNALQSGNSQESVTEQDSKDSTYSLSSTLTLSKADYEKHKVYACEVTHQGLSSPVTKSFNRGEC
# modifications: X at position 1 is E or pyroglutamate
# notes: chimeric: BA012 murine variable regions, human IgG1 N297A and human Igκ constant regions
# Columns and labels:
# human CD73 on cells [1] = biological target: T1, human CD73 on cells; assay: flow cytometry, CHO cells expressing human CD73 (panel CHO-huCD73), MFI vs antibody concentration
# Description: (§1) Briefly, Chinese hamster ovarian (CHO) cells were transduced with lentiviral vectors comprising a mouse, cynomolgus, or human CD73 coding sequence under the control of a CMV promoter, and stable CHO-CD73 cells were generated by antibiotic selection. Expression of CD73 was verified by flow cytometry using positive control antibodies. The stable CHO-CD73 cells were grown in suspension culture in RPMI media supplemented with 10% heat-inactivated FBS at 37° C. and 5% CO₂. […] The cells were then washed twice and analyzed using the LSRFortessa™ flow cytometer (BD Biosciences). FACS data were analyzed using FACS DIVA and WEHI Weasel software, and were plotted with Graphpad Prism software.
# human CD73 on cells [2] = biological target: T1, human CD73 on cells; assay: flow cytometry, CHO cells expressing human CD73, MFI vs antibody concentration
# human CD73 on cells [3] = biological target: T1, human CD73 on cells; assay: flow cytometry on CHO cells expressing human CD73; area under MFI curve
# Description: as §1
# (§2) The affinities of the humanized anti-CD73 antibodies to membrane-associated CD73 were determined. Specifically, CHO cells ectopically expressing full-length human or cynomolgus CD73 were generated, and the binding of the antibodies to the cells were examined, using the method as described in Example 6.1.3.
# human CD73 on cells [4] = biological target: T1, human CD73 on cells; assay: cell-based or functional assay
# [5] = biological target: T2, recombinant human CD73 protein fused …; assay: cell-based or functional assay
# cynomolgus CD73 on cells [6] = biological target: T3, cynomolgus CD73 on cells; assay: flow cytometry on CHO cells expressing cynomolgus CD73; area under MFI curve
# Description: as §1, §2
# [7] = biological target: T2, recombinant human CD73 protein fused …; assay: SPR; antibody on Protein A chip, CD73-His as analyte
# Description: (§3) The sensor chip was regenerated between cycles with a 30-sec injection of 10 mM glycine, pH 1.5. Sensograms were evaluated and fit to a simple Langmuir 1:1 interaction model using the global data analysis option of BiaEvaluation 3.1 software. Data quality was verified by visually inspecting deviations and curve fitting, and by evaluating the parameters of Rmax, Chi2, and Tc.
# [8] = biological target: T4, recombinant cynomolgus CD73 protein …; assay: as above
# Description: as §3
# mouse CD73 on cells = biological target: T5, mouse CD73 on cells; assay: flow cytometry, CHO cells expressing mouse CD73 (panel CHO-muCD73), MFI vs antibody concentration
# Description: as §1
# cynomolgus CD73 on cells [9] = biological target: T3, cynomolgus CD73 on cells; assay: flow cytometry, CHO cells expressing cynomolgus CD73, MFI vs antibody concentration
# human CD73 on cells [10] = biological target: T1, human CD73 on cells; assay: cell-based or functional assay; remark: listed apart in the source
# [11] = biological target: T2, recombinant human CD73 protein fused …; assay: SPR; antibody on Protein A chip, CD73-His as analyte; remark: listed apart in the source
# Description: as §3
# [12] = biological target: T4, recombinant cynomolgus CD73 protein …; assay: as above; remark: listed apart in the source
# Description: as §3
# [13] = biological target: T6, recombinant mouse CD73 protein fused …; assay: as above
# Description: as §3
# cynomolgus CD73 on cells [14] = biological target: T3, cynomolgus CD73 on cells; assay: flow cytometry, CHO cells expressing cynomolgus CD73 (panel CHO-cyCD73), MFI vs antibody concentration
# Description: as §1
binder,measurement,setting,value
B1,EC50 (read off the curve),human CD73 on cells [1],~0.2 µg/mL
same,EC50 (read off the curve),human CD73 on cells [2],~0.1 µg/mL
same,AUC,human CD73 on cells [3],113000
same,"AUC, CD73 enzymatic activity on Jurkat cells expressing human CD73 (FIG. 2A)",human CD73 on cells [4],239
same,"AUC, enzymatic activity of immobilized recombinant human CD73 (FIGS. 7B-7P)",[5],91.2
same,AUC,cynomolgus CD73 on cells [6],2440
same,Kd,[7],0.088 nM
same,koff,[7],0.0002 s⁻¹
same,kon,[7],2.27e+06 M⁻¹ s⁻¹
same,Kd,[8],0.07 nM
same,koff,[8],8.3e-05 s⁻¹
same,kon,[8],1.14e+06 M⁻¹ s⁻¹
same,EC50 (read off the curve),mouse CD73 on cells,~0.4 µg/mL
same,EC50 (read off the curve),cynomolgus CD73 on cells [9],~0.2 µg/mL
same,"AUC, CD73 enzymatic activity on Jurkat cells expressing human CD73 (FIGS. 6B-6P)",human CD73 on cells [10],328
same,Kd,[11],0.015 nM
same,koff,[11],0.00041 s⁻¹
same,kon,[11],2.8e+07 M⁻¹ s⁻¹
same,Kd,[12],0.3 nM
same,koff,[12],8.7e-05 s⁻¹
same,kon,[12],310000 M⁻¹ s⁻¹
same,Kd,[13],10 nM
same,koff,[13],0.0006 s⁻¹
same,kon,[13],61000 M⁻¹ s⁻¹
same,EC50 (read off the curve),cynomolgus CD73 on cells [14],~0.5 µg/mL

# From US20190352418A1 (AGENUS, published 2019)
